Biological target: NC-RLuc (HIV-1 nucleocapsid fused to Renilla luciferase), expressed in HeLa cells (HIV-1)
Assay: proximity ligation

## Staufen1-YFP (from UniProt O95793-2 1-496) (natural protein)
  PLA spots per cell (spots per cell): 103
